Reference: article PMC8155012, “Architecture of the Sema3A/PlexinA4/Neuropilin tripartite complex” (Nature Communications, 2021)

T1: FLAG-tagged PlexinA4 extracellular region (mouse, UniProt Q80UG2 33-1226)
T1 construct: mouse PlexinA4 residues 33–1226, extracellular region; FLAG inserted immediately after the signal peptide; also called PlexinA4-WT; source: Expi293F, purified from medium (Ni-NTA, Superose 6); not shown: FLAG, N-terminal, kept
T1 sequence (looked up): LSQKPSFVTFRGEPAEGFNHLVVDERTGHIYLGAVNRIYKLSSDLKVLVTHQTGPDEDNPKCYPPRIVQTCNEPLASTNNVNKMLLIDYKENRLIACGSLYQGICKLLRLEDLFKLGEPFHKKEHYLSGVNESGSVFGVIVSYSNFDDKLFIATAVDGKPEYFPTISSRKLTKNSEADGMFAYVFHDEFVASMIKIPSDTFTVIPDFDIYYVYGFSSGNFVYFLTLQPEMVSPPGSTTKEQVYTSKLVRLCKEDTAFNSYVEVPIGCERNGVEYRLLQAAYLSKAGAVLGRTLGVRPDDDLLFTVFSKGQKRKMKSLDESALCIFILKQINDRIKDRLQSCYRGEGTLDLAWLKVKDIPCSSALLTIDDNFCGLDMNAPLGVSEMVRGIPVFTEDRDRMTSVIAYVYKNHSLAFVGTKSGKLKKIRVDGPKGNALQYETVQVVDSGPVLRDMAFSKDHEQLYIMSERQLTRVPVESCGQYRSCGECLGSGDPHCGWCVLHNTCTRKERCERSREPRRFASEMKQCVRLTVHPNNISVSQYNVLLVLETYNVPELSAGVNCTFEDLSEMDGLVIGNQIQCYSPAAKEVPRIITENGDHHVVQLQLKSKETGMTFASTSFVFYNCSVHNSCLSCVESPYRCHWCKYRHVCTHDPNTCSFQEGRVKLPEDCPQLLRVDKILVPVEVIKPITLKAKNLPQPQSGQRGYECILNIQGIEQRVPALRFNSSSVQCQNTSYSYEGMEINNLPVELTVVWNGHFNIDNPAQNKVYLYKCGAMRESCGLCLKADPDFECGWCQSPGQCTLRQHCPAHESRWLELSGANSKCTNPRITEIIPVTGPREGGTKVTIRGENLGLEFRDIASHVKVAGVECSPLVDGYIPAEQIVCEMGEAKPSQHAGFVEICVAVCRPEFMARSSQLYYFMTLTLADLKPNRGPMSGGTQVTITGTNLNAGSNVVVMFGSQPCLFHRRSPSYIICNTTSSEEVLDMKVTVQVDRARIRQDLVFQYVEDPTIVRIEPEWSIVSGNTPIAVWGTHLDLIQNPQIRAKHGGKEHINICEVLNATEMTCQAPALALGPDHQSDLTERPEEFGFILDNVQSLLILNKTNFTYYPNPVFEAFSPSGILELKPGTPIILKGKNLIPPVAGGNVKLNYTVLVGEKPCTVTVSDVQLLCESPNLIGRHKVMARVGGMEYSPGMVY

T2: FLAG-tagged PlexinA4 extracellular region K343E (mouse, UniProt Q80UG2 33-1226, K343E)
T2 construct: mouse PlexinA4 residues 33–1226, extracellular region, K343E; also called PlexinA4-K343E; source: Expi293F, purified from medium (Ni-NTA, Superose 6); not shown: FLAG, N-terminal, kept
T2 sequence (looked up): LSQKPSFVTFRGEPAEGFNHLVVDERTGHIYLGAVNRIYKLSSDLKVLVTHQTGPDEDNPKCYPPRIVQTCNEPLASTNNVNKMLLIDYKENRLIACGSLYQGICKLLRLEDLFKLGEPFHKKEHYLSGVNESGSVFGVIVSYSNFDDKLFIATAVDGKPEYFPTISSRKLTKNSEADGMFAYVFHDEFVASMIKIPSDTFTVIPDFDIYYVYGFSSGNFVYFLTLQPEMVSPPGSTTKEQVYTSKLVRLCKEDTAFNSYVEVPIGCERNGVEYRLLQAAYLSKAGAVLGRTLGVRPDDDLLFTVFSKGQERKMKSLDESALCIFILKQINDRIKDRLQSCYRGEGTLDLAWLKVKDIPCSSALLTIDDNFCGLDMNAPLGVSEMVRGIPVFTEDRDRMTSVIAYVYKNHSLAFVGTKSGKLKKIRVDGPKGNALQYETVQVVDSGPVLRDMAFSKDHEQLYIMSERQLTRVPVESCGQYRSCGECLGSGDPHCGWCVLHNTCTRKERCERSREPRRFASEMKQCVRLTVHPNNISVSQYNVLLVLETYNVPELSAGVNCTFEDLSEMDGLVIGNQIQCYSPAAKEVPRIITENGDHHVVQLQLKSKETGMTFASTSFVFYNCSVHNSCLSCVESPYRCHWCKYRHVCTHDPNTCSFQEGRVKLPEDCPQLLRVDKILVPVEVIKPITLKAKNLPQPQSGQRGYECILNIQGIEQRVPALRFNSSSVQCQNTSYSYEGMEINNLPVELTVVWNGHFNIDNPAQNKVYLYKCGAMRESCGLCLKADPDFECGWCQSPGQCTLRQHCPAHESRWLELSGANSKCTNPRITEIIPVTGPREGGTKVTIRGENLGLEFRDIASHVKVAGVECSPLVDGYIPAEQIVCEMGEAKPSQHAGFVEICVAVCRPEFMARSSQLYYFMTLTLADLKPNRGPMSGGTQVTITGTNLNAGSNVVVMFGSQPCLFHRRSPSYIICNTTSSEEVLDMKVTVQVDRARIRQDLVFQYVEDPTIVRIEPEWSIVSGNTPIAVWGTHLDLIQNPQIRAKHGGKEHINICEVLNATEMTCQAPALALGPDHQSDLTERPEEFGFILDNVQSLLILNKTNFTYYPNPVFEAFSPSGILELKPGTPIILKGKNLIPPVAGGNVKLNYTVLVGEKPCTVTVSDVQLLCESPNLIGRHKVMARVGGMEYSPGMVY


Assays:
[1] = biological target: T1, FLAG-tagged PlexinA4 extracellular …; assay: pull-down; FLAG-tagged PlexinA4 (20 µg) on anti-FLAG antibody resin; Nrp1 and Sema3A, 30 µg each, added together; 20 mM HEPES (pH 7.5), 150 mM NaCl, 1 mM CaCl2, 4 °C, 1 h; SDS-PAGE, Coomassie blue; conditions: both partners purified
[2] = biological target: T2, FLAG-tagged PlexinA4 extracellular …; assay: as above; conditions: both partners purified

| binding result [1] | binding result [2] | Binder |
| --- | --- | --- |
| binds | binds | Sema3A (21–770) (ligand, mouse, UniProt O08665 21-770, looked up, mouse Sema3A residues 21–770, ending at Arg770; internal furin sites mutated; without the A106K mutation; PDB 7M0R holds the A106K form; also called Sema3A-WT; wild-type Sema3A; source: Expi293F, purified from medium (Ni-NTA, Superose 6)) NYANGKNNVPRLKLSYKEMLESNNVITFNGLANSSSYHTFLLDEERSRLYVGAKDHIFSFNLVNIKDFQKIVWPVSYTRRDECKWAGKDILKECANFIKVLEAYNQTHLYACGTGAFHPICTYIEVGHHPEDNIFKLQDSHFENGRGKSPYDPKLLTASLLIDGELYSGTAADFMGRDFAIFRTLGHHHPIRTEQHDSRWLNDPRFISAHLIPESDNPEDDKVYFFFRENAIDGEHSGKATHARIGQICKNDFGGHRSLVNKWTTFLKARLICSVPGPNGIDTHFDELQDVFLMNSKDPKNPIVYGVFTTSSNIFKGSAVCMYSMSDVRRVFLGPYAHRDGPNYQWVPYQGRVPYPRPGTCPSKTFGGFDSTKDLPDDVITFARSHPAMYNPVFPINNRPIMIKTDVNYQFTQIVVDRVDAEDGQYDVMFIGTDVGTVLKVVSVPKETWHDLEEILLEEMTVFREPTTISAMELSTKQQQLYIGSTAGVAQLPLHRCDIYGKACAECCLARDPYCAWDGSSCSRYFPTAKARTRAQDIRNGDPLTHCSDLQHHDNHHGPSLEERIIYGVENSSTFLECSPKSQRALVYWQFQRRNEDRKEEIRMGDHIIRTEQGLLLRSLQKKDSGNYLCHAVEHGFMQTLLKVTLEVIDTEHLEELLHKDDDGDGSKIKEMSSSMTPSQKVWYRDFMQLINHPNLNTMDEFCEQVWKRDAAQAAQRPGHSQGSSNKWKHMQESKKGANRATHEFERAPR |
| binds | binds | Nrp1-a1a2b1b2 (receptor, mouse, UniProt P97333 22-588, looked up, mouse Neuropilin 1 residues 22–588, domains a1, a2, b1 and b2; also called MAM-domain truncated version of Nrp1; Nrp1-WT; source: Expi293F, transfected alone or co-expressed with Sema3A and PlexinA4, purified from medium (Ni-NTA, Superose 6)) FRSDKCGGTIKIENPGYLTSPGYPHSYHPSEKCEWLIQAPEPYQRIMINFNPHFDLEDRDCKYDYVEVIDGENEGGRLWGKFCGKIAPSPVVSSGPFLFIKFVSDYETHGAGFSIRYEIFKRGPECSQNYTAPTGVIKSPGFPEKYPNSLECTYIIFAPKMSEIILEFESFDLEQDSNPPGGMFCRYDRLEIWDGFPEVGPHIGRYCGQKTPGRIRSSSGVLSMVFYTDSAIAKEGFSANYSVLQSSISEDFKCMEALGMESGEIHSDQITASSQYGTNWSVERSRLNYPENGWTPGEDSYKEWIQVDLGLLRFVTAVGTQGAISKETKKKYYVKTYRVDISSNGEDWISLKEGNKAIIFQGNTNPTDVVLGVFSKPLITRFVRIKPVSWETGISMRFEVYGCKITDYPCSGMLGMVSGLISDSQITASNQADRNWMPENIRLVTSRTGWALPPSPHPYTNEWLQVDLGDEKIVRGVIIQGGKHRENKVFMRKFKIAYSNNGSDWKTIMDDSKRKAKSFEGNNNYDTPELRTFSPLSTRFIRIYPERATHSGLGLRMELLGCEVEAP |
